According to patent US20220048993A1 (published 2022):

Key:
[1] = biological target: T1, soluble cynomolgus FcRH5 protein fragment; assay: SPR; 25 °C
T1 chain: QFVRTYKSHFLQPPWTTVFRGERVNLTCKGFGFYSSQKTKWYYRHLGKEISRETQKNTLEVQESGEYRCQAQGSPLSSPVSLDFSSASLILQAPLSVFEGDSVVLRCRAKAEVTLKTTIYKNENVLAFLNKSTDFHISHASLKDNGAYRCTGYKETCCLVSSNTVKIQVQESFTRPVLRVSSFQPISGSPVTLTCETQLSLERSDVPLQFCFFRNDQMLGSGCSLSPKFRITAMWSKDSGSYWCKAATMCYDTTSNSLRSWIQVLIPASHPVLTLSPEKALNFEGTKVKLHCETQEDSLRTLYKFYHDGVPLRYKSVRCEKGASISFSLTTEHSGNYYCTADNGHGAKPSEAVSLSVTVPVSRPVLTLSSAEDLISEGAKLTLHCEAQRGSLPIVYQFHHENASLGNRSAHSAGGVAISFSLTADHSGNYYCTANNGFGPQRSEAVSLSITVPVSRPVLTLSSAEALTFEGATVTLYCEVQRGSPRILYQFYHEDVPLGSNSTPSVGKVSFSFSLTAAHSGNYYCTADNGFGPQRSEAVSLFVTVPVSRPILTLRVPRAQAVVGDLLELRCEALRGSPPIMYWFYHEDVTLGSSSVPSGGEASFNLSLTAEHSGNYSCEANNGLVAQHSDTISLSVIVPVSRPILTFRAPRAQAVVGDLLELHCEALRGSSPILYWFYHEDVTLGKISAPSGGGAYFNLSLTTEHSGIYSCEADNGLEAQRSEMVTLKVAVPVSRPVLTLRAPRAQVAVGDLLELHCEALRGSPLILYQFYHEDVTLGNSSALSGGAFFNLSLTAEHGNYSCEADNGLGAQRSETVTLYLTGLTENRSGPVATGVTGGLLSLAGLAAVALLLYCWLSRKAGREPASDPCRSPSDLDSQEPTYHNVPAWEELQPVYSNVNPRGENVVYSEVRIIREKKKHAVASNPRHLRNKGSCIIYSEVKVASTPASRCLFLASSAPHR

[2] = biological target: T2, soluble human FcRH5 protein fragment (UniProt Q96RD9 16-851); assay: SPR; 25 °C
T2 chain: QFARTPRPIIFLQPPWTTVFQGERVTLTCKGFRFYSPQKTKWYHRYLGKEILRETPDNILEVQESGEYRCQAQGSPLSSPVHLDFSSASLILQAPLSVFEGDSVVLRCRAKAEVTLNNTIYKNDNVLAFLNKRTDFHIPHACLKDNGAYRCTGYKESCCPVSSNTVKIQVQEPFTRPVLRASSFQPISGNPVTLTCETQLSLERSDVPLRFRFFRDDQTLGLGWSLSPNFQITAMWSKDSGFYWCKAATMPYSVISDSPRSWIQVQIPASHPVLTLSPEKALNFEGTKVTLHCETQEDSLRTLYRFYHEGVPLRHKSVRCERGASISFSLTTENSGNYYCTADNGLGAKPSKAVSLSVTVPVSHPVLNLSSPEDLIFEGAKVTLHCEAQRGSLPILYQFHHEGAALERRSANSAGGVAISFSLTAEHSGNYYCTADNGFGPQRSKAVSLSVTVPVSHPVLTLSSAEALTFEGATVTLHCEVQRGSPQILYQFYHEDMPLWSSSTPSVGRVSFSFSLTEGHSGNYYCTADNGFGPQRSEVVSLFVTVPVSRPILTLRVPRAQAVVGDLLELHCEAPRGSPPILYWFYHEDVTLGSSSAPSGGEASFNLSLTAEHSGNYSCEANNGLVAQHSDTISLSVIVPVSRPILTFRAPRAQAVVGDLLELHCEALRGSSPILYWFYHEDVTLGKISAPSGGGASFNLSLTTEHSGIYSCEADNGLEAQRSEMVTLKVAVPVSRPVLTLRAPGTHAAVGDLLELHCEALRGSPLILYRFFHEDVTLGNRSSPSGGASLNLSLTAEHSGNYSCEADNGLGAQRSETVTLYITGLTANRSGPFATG

[3] = biological target: 7D8.RbIgG; assay: SPR; 25 °C
[4] = biological target: T3, human FcRH3 (BIACORE analyte) (human, UniProt Q96P31 18-573); assay: SPR (1:1 binding); 25 °C
T3 chain: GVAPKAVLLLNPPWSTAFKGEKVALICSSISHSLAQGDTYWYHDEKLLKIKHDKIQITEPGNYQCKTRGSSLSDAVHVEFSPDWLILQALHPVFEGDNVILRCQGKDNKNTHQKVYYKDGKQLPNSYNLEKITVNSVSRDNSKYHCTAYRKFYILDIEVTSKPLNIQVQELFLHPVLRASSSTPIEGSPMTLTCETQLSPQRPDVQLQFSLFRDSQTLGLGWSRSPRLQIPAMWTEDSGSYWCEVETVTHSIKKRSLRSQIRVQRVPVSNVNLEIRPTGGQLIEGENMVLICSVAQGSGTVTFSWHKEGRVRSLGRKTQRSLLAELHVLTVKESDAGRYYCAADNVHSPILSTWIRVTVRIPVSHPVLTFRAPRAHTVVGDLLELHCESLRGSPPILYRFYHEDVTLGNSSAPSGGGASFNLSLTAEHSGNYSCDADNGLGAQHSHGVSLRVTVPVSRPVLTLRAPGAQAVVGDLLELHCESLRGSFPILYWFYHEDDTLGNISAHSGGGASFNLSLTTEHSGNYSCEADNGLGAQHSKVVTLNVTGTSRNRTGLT

[5] = biological target: T2, soluble human FcRH5 protein fragment; assay: SPR

B1: h7D8.L1H2 (antibody)
chain 1: EVQLVESGGGLVQPGGSLRLSCAVSGIDLSSYAMGWVRQAPGKGLEWIGTIGTGGTPYYASWAKGRFTISKDSSKNTVYLQMNSLRAEDTAVYFCARDMYTGSIYYDMWGQGTLVTVSS
chain 2: DAQLTQSPSSLSASVGDRVTITCQSSQSVFNNAQLSWYQQKPGKPPKLLIYDTSNLASGVPSRFSGSGSGTDFTLTISSLQPEDFATYYCLGAYTDDADNAFGQGTKVEIK
Kd [1]: 4.97 nM
Kd [2]: 1.26 nM

B2: Cyno FcRH5 (receptor)
chain: QFVRTYKSHFLQPPWTTVFRGERVNLTCKGFGFYSSQKTKWYYRHLGKEISRETQKNTLEVQESGEYRCQAQGSPLSSPVSLDFSSASLILQAPLSVFEGDSVVLRCRAKAEVTLKTTIYKNENVLAFLNKSTDFHISHASLKDNGAYRCTGYKETCCLVSSNTVKIQVQESFTRPVLRVSSFQPISGSPVTLTCETQLSLERSDVPLQFCFFRNDQMLGSGCSLSPKFRITAMWSKDSGSYWCKAATMCYDTTSNSLRSWIQVLIPASHPVLTLSPEKALNFEGTKVKLHCETQEDSLRTLYKFYHDGVPLRYKSVRCEKGASISFSLTTEHSGNYYCTADNGHGAKPSEAVSLSVTVPVSRPVLTLSSAEDLISEGAKLTLHCEAQRGSLPIVYQFHHENASLGNRSAHSAGGVAISFSLTADHSGNYYCTANNGFGPQRSEAVSLSITVPVSRPVLTLSSAEALTFEGATVTLYCEVQRGSPRILYQFYHEDVPLGSNSTPSVGKVSFSFSLTAAHSGNYYCTADNGFGPQRSEAVSLFVTVPVSRPILTLRVPRAQAVVGDLLELRCEALRGSPPIMYWFYHEDVTLGSSSVPSGGEASFNLSLTAEHSGNYSCEANNGLVAQHSDTISLSVIVPVSRPILTFRAPRAQAVVGDLLELHCEALRGSSPILYWFYHEDVTLGKISAPSGGGAYFNLSLTTEHSGIYSCEADNGLEAQRSEMVTLKVAVPVSRPVLTLRAPRAQVAVGDLLELHCEALRGSPLILYQFYHEDVTLGNSSALSGGAFFNLSLTAEHGNYSCEADNGLGAQRSETVTLYLTGLTENRSGPVATGVTGGLLSLAGLAAVALLLYCWLSRKAGREPASDPCRSPSDLDSQEPTYHNVPAWEELQPVYSNVNPRGENVVYSEVRIIREKKKHAVASNPRHLRNKGSCIIYSEVKVASTPASRCLFLASSAPHR
Kd [3]: 1.89 nM

B3: Human FcRH5 (receptor)
chain: QFARTPRPIIFLQPPWTTVFQGERVTLTCKGFRFYSPQKTKWYHRYLGKEILRETPDNILEVQESGEYRCQAQGSPLSSPVHLDFSSASLILQAPLSVFEGDSVVLRCRAKAEVTLNNTIYKNDNVLAFLNKRTDFHIPHACLKDNGAYRCTGYKESCCPVSSNTVKIQVQEPFTRPVLRASSFQPISGNPVTLTCETQLSLERSDVPLRFRFFRDDQTLGLGWSLSPNFQITAMWSKDSGFYWCKAATMPYSVISDSPRSWIQVQIPASHPVLTLSPEKALNFEGTKVTLHCETQEDSLRTLYRFYHEGVPLRHKSVRCERGASISFSLTTENSGNYYCTADNGLGAKPSKAVSLSVTVPVSHPVLNLSSPEDLIFEGAKVTLHCEAQRGSLPILYQFHHEGAALERRSANSAGGVAISFSLTAEHSGNYYCTADNGFGPQRSKAVSLSVTVPVSHPVLTLSSAEALTFEGATVTLHCEVQRGSPQILYQFYHEDMPLWSSSTPSVGRVSFSFSLTEGHSGNYYCTADNGFGPQRSEVVSLFVTVPVSRPILTLRVPRAQAVVGDLLELHCEAPRGSPPILYWFYHEDVTLGSSSAPSGGEASFNLSLTAEHSGNYSCEANNGLVAQHSDTISLSVIVPVSRPILTFRAPRAQAVVGDLLELHCEALRGSSPILYWFYHEDVTLGKISAPSGGGASFNLSLTTEHSGIYSCEADNGLEAQRSEMVTLKVAVPVSRPVLTLRAPGTHAAVGDLLELHCEALRGSPLILYRFFHEDVTLGNRSSPSGGASLNLSLTAEHSGNYSCEADNGLGAQRSETVTLYITGLTANRSGPFATG
Kd [3]: 0.403 nM

B4: 1G7.v1.4/38E4.v1 TDB (bispecific antibody, V domains shown)
VH 1: EVQLVESGPGLVKPSETLSLTCTVSGFSLTRFGVHWVRQPPGKGLEWLGVIWRGGSTDYNAAFMSRLTISKDNSKNQVSLKLSSVTAADTAVYYCSNHYYGSSDYALDNWGQGTLVTVSS
VL 1: DIQMTQSPSSLSASVGDRVTITCKASQDVRNLVVWFQQKPGKAPKLLIYSGSYRYSGVPSRFSGSGSGTDFTLTISSLQPEDFATYYCQQHYSPPYTFGQGTKVEIK
VH 2: EVQLVQSGAEVKKPGASVKVSCKASGFTFTSYYIHWVRQAPGQGLEWIGWIYPENDNTKYNEKFKDRVTITADTSTSTAYLELSSLRSEDTAVYYCARDGYSRYYFDYWGQGTLVTVSS
VL 2: DIVMTQSPDSLAVSLGERATINCKSSQSLLNSRTRKNYLAWYQQKPGQSPKLLIYWTSTRKSGVPDRFSGSGSGTDFTLTISSLQAEDVAVYYCKQSFILRTFGQGTKVEIK
Kd [4]: 76.5 nM

B5: hu1G7.v93/38E4.v1 TDB (bispecific antibody, V domains shown)
VH 1: EVQLVESGPGLVKPSETLSLTCTVSGFSTTRFGVHWVRQPPGKGLEWLGVIWRGGSTDYNAAFVSRLTISKDNSKNQVSLKLSSVTAADTAVYYCSNHYYGSPDYALDNWGQGTLVTVSS
VL 1: DIQMTQSPSSLSASVGDRVTITCKASQDVSNLVVWFQQKPGKAPKLLIYSGSYRYSGVPSRFSGSGSGTDFTLTISSLQPEDFATYYCQQHYSPPYTFGQGTKVEIK
VH 2: EVQLVQSGAEVKKPGASVKVSCKASGFTFTSYYIHWVRQAPGQGLEWIGWIYPENDNTKYNEKFKDRVTITADTSTSTAYLELSSLRSEDTAVYYCARDGYSRYYFDYWGQGTLVTVSS
VL 2: DIVMTQSPDSLAVSLGERATINCKSSQSLLNSRTRKNYLAWYQQKPGQSPKLLIYWTSTRKSGVPDRFSGSGSGTDFTLTISSLQAEDVAVYYCKQSFILRTFGQGTKVEIK
Kd [5]: 1.07 nM
